Laboratory results reported in US20170129962A1 (Hoffmann-La Roche, published 2017).

T1: human IL17 (human, UniProt Q16552 24-155)
T1 construct: for that reason an apparent KD is reported; also called IL17-A
T1 sequence (looked up): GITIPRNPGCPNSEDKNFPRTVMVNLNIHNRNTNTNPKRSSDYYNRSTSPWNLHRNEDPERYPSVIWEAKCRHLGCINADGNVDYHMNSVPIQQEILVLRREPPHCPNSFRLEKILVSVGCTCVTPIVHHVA

T2: TWEAK (human, UniProt O43508 94-249, limits assumed)
T2 construct: The method paragraph says only 'TWEAK'; also called human TWEAK; TNF-related weak inducer of apoptosis
T2 sequence (looked up): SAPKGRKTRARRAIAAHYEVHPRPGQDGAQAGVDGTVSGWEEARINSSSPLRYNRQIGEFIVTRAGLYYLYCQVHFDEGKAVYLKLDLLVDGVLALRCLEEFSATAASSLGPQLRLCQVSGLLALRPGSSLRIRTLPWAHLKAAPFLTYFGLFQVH


Assays:
human IL17 [1] = target: T1, human IL17; test: SPR (Biacore), bispecific antibody captured by anti-human F(ab')2, human IL17 as analyte, 1:1 Langmuir
Description: (§1) Around 6000 resonance units (RU) of the capturing system (15 μg/ml goat anti human F(ab′)2; Order Code: 28958325; GE Healthcare Bio-Sciences AB, Schweden) were coupled on a CMS chip at pH 5.0 by using an amine coupling kit supplied by the GE Healthcare. The sample and system buffer was PBS-T (10 mM phosphate buffered saline including 0.05% Tween 20) pH 7.4. The bispecific antibody was captured by injecting a 50 nM solution for 90 sec at a flow of 10 μl/min. Association was measured by injection human IL17 in various concentrations in solution for 3 min at a flow of 30 μl/min starting with 50 nM in 1:1 serial dilutions. The dissociation phase was monitored for up to 10 min and triggered by switching from the sample solution to running buffer. The surface was regenerated twice by 60 sec wash with a 10 mM glycine pH 2.1 solution at a flow rate of 30 μl/min. Bulk refractive index differences were corrected by subtracting the response obtained from a goat anti human F(ab′)2 surface. Blank injections are also subtracted (=double referencing). For calculation of apparent KD and other kinetic parameters, the Langmuir 1:1 model was used.
(§2) Binding of the multispecific antibodies to their respective target antigens, i.e. IL17 and TWEAK, was assessed by Biacore® as described in the general methods section.

human IL17 [2] = target: T1, human IL17; test: SPR (Biacore), bispecific antibody captured by anti-human F(ab')2, human IL17 as analyte, 1:1 Langmuir, apparent KD
Description: as §1, §2

TWEAK = target: T2, TWEAK; test: SPR (Biacore), TWEAK amine-coupled on C1 chip, bispecific antibody as analyte, 1:1 Langmuir
Description: Around 100 RU of TWEAK was immobilized on the C1 chip surface at pH 5.0 using an amine coupling kit supplied by the GE Healthcare. The sample and system buffer was PBS-T (10 mM phosphate buffered saline including 0.05% Tween 20) pH 7.4. Association was measured by injection the bispecific antibody in various concentrations in solution for 3 min at a flow of 30 μl/min starting with 50 nM in 1:1 serial dilutions. The dissociation phase was monitored for up to 10 min and triggered by switching from the sample solution to running buffer. The surface was regenerated three times by 30 sec wash with a 3 M MgCl2 solution at a flow rate of 30 μl/min. Bulk refractive index differences were corrected by subtracting the response obtained from a blank-coupled surface. Blank injections are also subtracted (=double referencing). For calculation of KD and other kinetic parameters, the Langmuir 1:1 model was used.
as §2

Binder | koff (human IL17 [1]) | kon (human IL17 [1]) | Kd (human IL17 [2]) | Kd (TWEAK) | koff (TWEAK) | kon (TWEAK)
TweakIL17-0049 (bispecific antibody, human IgG4 S228P, kappa, also called TweakIL17-0049 (control)) light 1: DIVMTQSPLSLPVTPGEPASISCRSSQSLVHSNGDTYFHWYLQKPGQSPQLLIYKVSNRFSGVPDRFSGSGSGTDFTLKISRVEAEDVGVYYCSQTTHAPFTFGQGTKLEIKRTVAAPSVFIFPPSDEQLKSGTASVVCLLNNFYPREAKVQWKVDNALQSGNSQESVTEQDSKDSTYSLSSTLTLSKADYEKHKVYACEVTHQGLSSPVTKSFNRGEC heavy 1: EVQLVESGGGLVQPGGSLRLSCAASGFSLDSYGVHWVRQATGKGLEWVSVIWSDGTTTYNSALKSRFTISRENAKNSLYLQMNSLRAGDTAVYYCARDTHYRLYYYAMDYWGQGTTVTVSSASTKGPSVFPLAPCSRSTSESTAALGCLVKDYFPEPVTVSWNSGALTSGVHTFPAVLQSSGLYSLSSVVTVPSSSLGTKTYTCNVDHKPSNTKVDKRVESKYGPPCPPCPAPEFEGGPSVFLFPPKPKDTLMISRTPEVTCVVVDVSQEDPEVQFNWYVDGVEVHNAKTKPREEQFNSTYRVVSVLTVLHQDWLNGKEYKCKVSNKGLPSSIEKTISKAKGQPREPQVCTLPPSQEEMTKNQVSLSCAVKGFYPSDIAVEWESNGQPENNYKTTPPVLDSDGSFFLVSRLTVDKSRWQEGNVFSCSVMHEALHNHYTQKSLSLSLGK light 2: DIQMTQSPSSVSASVGDRVTITCQASQNIYSNLAWYQQKPGKAPKLLIYTASYLASGVPSRFSGSGSGTDYTLTISSLQPEDFATYYCQTAYYNSRPDTVAFGGGTKVEIKSSASTKGPSVFPLAPCSRSTSESTAALGCLVKDYFPEPVTVSWNSGALTSGVHTFPAVLQSSGLYSLSSVVTVPSSSLGTKTYTCNVDHKPSNTKVDKRVESKYG heavy 2: QVQLVQSGAEVKKPGSSVKVSCKASGFDFSTYYMSWVRQAPGQGLEWMGTVYVRQGTTYYASWLNGRVTITADESTSTAYMELSSLRSEDTAVYYCARGGYNYDDAFVIWGQGTLVTVSSASVAAPSVFIFPPSDEQLKSGTASVVCLLNNFYPREAKVQWKVDNALQSGNSQESVTEQDSKDSTYSLSSTLTLSKADYEKHKVYACEVTHQGLSSPVTKSFNRGECPPCPPCPAPEFEGGPSVFLFPPKPKDTLMISRTPEVTCVVVDVSQEDPEVQFNWYVDGVEVHNAKTKPREEQFNSTYRVVSVLTVLHQDWLNGKEYKCKVSNKGLPSSIEKTISKAKGQPREPQVYTLPPCQEEMTKNQVSLWCLVKGFYPSDIAVEWESNGQPENNYKTTPPVLDSDGSFFLYSRLTVDKSRWQEGNVFSCSVMHEALHNHYTQKSLSLSLGK | 0.000123 s⁻¹ | 1.34e+06 M⁻¹ s⁻¹ | < 0.1 nM | < 0.1 nM | 4.82e-05 s⁻¹ | 1.27e+06 M⁻¹ s⁻¹
TweakIL17-0132 (bispecific antibody, human IgG4 S228P, kappa, CrossMAb CH1-CL, knob-into-hole with S354C/Y349C) light 1: DIVMTQSPLSLPVTPGEPASISCRSSQSLVHSNGDTYFHWYLQKPGQSPQLLIYKVSNRFSGVPDRFSGSGSGTDFTLKISRVEAEDVGVYYCSQTTHAPFTFGQGTKLEIKRTVAAPSVFIFPPSDKRLKSGTASVVCLLNNFYPREAKVQWKVDNALQSGNSQESVTEQDSKDSTYSLSSTLTLSKADYEKHKVYACEVTHQGLSSPVTKSFNRGEC heavy 1: EVQLVESGGGLVQPGGSLRLSCAASGFSLDSYGVHWVRQATGKGLEWVSVIWSDGTTTYNSALKSRFTISRENAKNSLYLQMNSLRAGDTAVYYCARDTHYRLYYYAMDYWGQGTTVTVSSASTKGPSVFPLAPCSRSTSESTAALGCLVEDYFPEPVTVSWNSGALTSGVHTFPAVLQSSGLYSLSSVVTVPSSSLGTKTYTCNVDHKPSNTKVDERVESKYGPPCPPCPAPEFEGGPSVFLFPPKPKDTLMISRTPEVTCVVVDVSQEDPEVQFNWYVDGVEVHNAKTKPREEQFNSTYRVVSVLTVLHQDWLNGKEYKCKVSNKGLPSSIEKTISKAKGQPREPQVCTLPPSQEEMTKNQVSLSCAVKGFYPSDIAVEWESNGQPENNYKTTPPVLDSDGSFFLVSRLTVDKSRWQEGNVFSCSVMHEALHNHYTQKSLSLSLGK light 2: DIQMTQSPSSVSASVGDRVTITCQASQNIYSNLAWYQQKPGKAPKLLIYTASYLASGVPSRFSGSGSGTDYTLTISSLQPEDFATYYCQTAYYNSRPDTVAFGGGTKVEIKSSASTKGPSVFPLAPCSRSTSESTAALGCLVKDYFPEPVTVSWNSGALTSGVHTFPAVLQSSGLYSLSSVVTVPSSSLGTKTYTCNVDHKPSNTKVDKRVESKYG heavy 2: QVQLVQSGAEVKKPGSSVKVSCKASGFDFSTYYMSWVRQAPGQGLEWMGTVYVRQGTTYYASWLNGRVTITADESTSTAYMELSSLRSEDTAVYYCARGGYNYDDAFVIWGQGTLVTVSSASVAAPSVFIFPPSDEQLKSGTASVVCLLNNFYPREAKVQWKVDNALQSGNSQESVTEQDSKDSTYSLSSTLTLSKADYEKHKVYACEVTHQGLSSPVTKSFNRGECPPCPPCPAPEFEGGPSVFLFPPKPKDTLMISRTPEVTCVVVDVSQEDPEVQFNWYVDGVEVHNAKTKPREEQFNSTYRVVSVLTVLHQDWLNGKEYKCKVSNKGLPSSIEKTISKAKGQPREPQVYTLPPCQEEMTKNQVSLWCLVKGFYPSDIAVEWESNGQPENNYKTTPPVLDSDGSFFLYSRLTVDKSRWQEGNVFSCSVMHEALHNHYTQKSLSLSLGK | 0.00013 s⁻¹ | 1.39e+06 M⁻¹ s⁻¹ | < 0.1 nM | < 0.1 nM | 4.79e-05 s⁻¹ | 1.17e+06 M⁻¹ s⁻¹
TweakIL17-0130 (bispecific antibody, human IgG4 S228P, kappa, CrossMAb CH1-CL, knob-into-hole with S354C/Y349C) light 1: DIVMTQSPLSLPVTPGEPASISCRSSQSLVHSNGDTYFHWYLQKPGQSPQLLIYKVSNRFSGVPDRFSGSGSGTDFTLKISRVEAEDVGVYYCSQTTHAPFTFGQGTKLEIKRTVAAPSVFIFPPSDKQLKSGTASVVCLLNNFYPREAKVQWKVDNALQSGNSQESVTEQDSKDSTYSLSSTLTLSKADYEKHKVYACEVTHQGLSSPVTKSFNRGEC heavy 1: EVQLVESGGGLVQPGGSLRLSCAASGFSLDSYGVHWVRQATGKGLEWVSVIWSDGTTTYNSALKSRFTISRENAKNSLYLQMNSLRAGDTAVYYCARDTHYRLYYYAMDYWGQGTTVTVSSASTKGPSVFPLAPCSRSTSESTAALGCLVKDYFPEPVTVSWNSGALTSGVHTFPAVLQSSGLYSLSSVVTVPSSSLGTKTYTCNVDHKPSNTKVDERVESKYGPPCPPCPAPEFEGGPSVFLFPPKPKDTLMISRTPEVTCVVVDVSQEDPEVQFNWYVDGVEVHNAKTKPREEQFNSTYRVVSVLTVLHQDWLNGKEYKCKVSNKGLPSSIEKTISKAKGQPREPQVCTLPPSQEEMTKNQVSLSCAVKGFYPSDIAVEWESNGQPENNYKTTPPVLDSDGSFFLVSRLTVDKSRWQEGNVFSCSVMHEALHNHYTQKSLSLSLGK light 2: DIQMTQSPSSVSASVGDRVTITCQASQNIYSNLAWYQQKPGKAPKLLIYTASYLASGVPSRFSGSGSGTDYTLTISSLQPEDFATYYCQTAYYNSRPDTVAFGGGTKVEIKSSASTKGPSVFPLAPCSRSTSESTAALGCLVKDYFPEPVTVSWNSGALTSGVHTFPAVLQSSGLYSLSSVVTVPSSSLGTKTYTCNVDHKPSNTKVDKRVESKYG heavy 2: QVQLVQSGAEVKKPGSSVKVSCKASGFDFSTYYMSWVRQAPGQGLEWMGTVYVRQGTTYYASWLNGRVTITADESTSTAYMELSSLRSEDTAVYYCARGGYNYDDAFVIWGQGTLVTVSSASVAAPSVFIFPPSDEQLKSGTASVVCLLNNFYPREAKVQWKVDNALQSGNSQESVTEQDSKDSTYSLSSTLTLSKADYEKHKVYACEVTHQGLSSPVTKSFNRGECPPCPPCPAPEFEGGPSVFLFPPKPKDTLMISRTPEVTCVVVDVSQEDPEVQFNWYVDGVEVHNAKTKPREEQFNSTYRVVSVLTVLHQDWLNGKEYKCKVSNKGLPSSIEKTISKAKGQPREPQVYTLPPCQEEMTKNQVSLWCLVKGFYPSDIAVEWESNGQPENNYKTTPPVLDSDGSFFLYSRLTVDKSRWQEGNVFSCSVMHEALHNHYTQKSLSLSLGK | 0.000194 s⁻¹ | 1.04e+07 M⁻¹ s⁻¹ | < 0.1 nM | < 0.1 nM | 2.83e-05 s⁻¹ | 859000 M⁻¹ s⁻¹
